Reference: the nanobody polyreactivity screen of Harvey et al. (2022)

Assay: yeast display, Sf9 membrane polyspecificity reagent, FACS + sequencing; frameworks hold sequencing errors
Method in brief: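 Galactose-induced (36–48 hours) yeast carrying a synthetic nanobody display library were exposed to 10% biotinylated, detergent-solubilized Sf9 membrane reagent at 4 °C for 1 hour. FACS followed streptavidin microbead enrichment, using low and high (top ~1%) gates for expression (anti-HA) and reagent binding (streptavidin). Colony PCR, MiSeq 2 × 250 sequencing and CDR-length filtering followed. Labels for polyreactivity reflect the gate of origin.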

Sequence	polyreactivity (PSR sort gate)
QVQLVESGGGLVQAGGSLRLSCAASGSIFGVNAMGWYRQAPGKERELVAAISNSGVRKYYADSVKGRFTISRDNAKNTVYLQMNSLKPEDTAVYYCARTYQVGDSIDDYWGQGTQVTVSP	low polyreactivity
QVQLVDSRGGLLQAGGSLRLSCAASGSIISRNAKGWYRQAPGKESELVAAITRSGGSTYYADSVKGRFTISRENAKNTVYLQRNRLKPEDTAVYYCATPIFSARRYTGYVKYDYWAQGTQVTVSS	high polyreactivity
QVQLVESGGGLVQAGGSLRLSCAASGFTSRKNAMGWYRQAPGKERELVAAITQSSGRTYYADSVKGRFTISRDNAKNTVYLQMNSLKPEDTAVYYCAARRGGEDDYWGQGTQVTVSS	low polyreactivity
QVQLVESGGGLVQAGGSLRLSCAASGRIFWYYAIGWYRQAPGKEREIVAAISRSGGTTYYADSVKGRFTISRDNAKNTVYLQMNSLKPEDTAVYYCAAVYHAYTGYEAWYEYDYWGQGTQVTVSS	high polyreactivity
QVQLVESGGGLVQAGGSLRLSCAASGSTFNNAMGWYRQAPGKERELVAAITRSGVRTYYADSVKGRFTISRDNAKNTVYLQMNSLKPEDTAVYYCAAGFQSRRYYAGYEDWGQGTQVSVSS	high polyreactivity
QVQLVESGGGLVQAGGSLRLSCAASGITFTTYAMGWYRQAPGKERELVATINRGSRTNYADSVKGRFTISRDNAKNTVYLQMNSLKAEDTAVYYCAAHYTTFIPSPDGDYLGQGTQVTVSS	low polyreactivity
QVQLVESGGGLVQAGGSLRLSCAASGRTFYRYVMGWYRQATGKERELDADISRRGGRTYYADSVKGRFTISRDNAKNTVYLQMNSLKPEDTAVYYCAAESKYATSSPRRDYWGQGTQVTVSS	high polyreactivity
QVQLVESGGGLVQAGGSLRLSCAASGRTFRYNTMGWYRQAPGKERELVASISWGGGSTYYADSVKGRFTISRDNAKNTVYLQMNSLKPEDTAVYYCAARRWGQFRFEYWGQGTQVTVSS	high polyreactivity
QVQLVESGGGLVQAGGSLRLSCAASGSTFYYYAMGRYRQAPGKEMELVATISRGGSTNYADSVKGRFTISRDNAKNTVYLQMNSLKPEDTAVYYCAIGYLRPYGSHRESTPYDYWGEGTQVTVSS	low polyreactivity
QVHLVESGGGLVQAGGSLRLSFAASRSIFSKYVMGWYRQAPGKERELVASITSGGRTNYADSVKGRFTISRDNAKNTVYLQMNSLKPEDTAVYYCAARAFKTWYRSGVDYWGQGTQVTVSS	low polyreactivity
QVQLVESGGGLVQAGGSLRLSCAASGRTFYYYAMGWYRQAPGKERELVAGIDFSSGSTYYADSVKGRFTISRDNAKNTVYLQMNSLKPEDTAVYYCAAKWHVRGRGARYRYDYDYWGQGTQVTVSS	low polyreactivity
QVQLVESGGGLVQAGGSLRLSCSASGSTFGRNSMGRYRQAPGKEREVVAAISWRSTRTYYADSVKGRFTISRDHAKNTVDLQMNSLKPEDNAGYYCAVYYFYPSTNCYHYDYWGQGTQVTVSS	high polyreactivity
QVQLVESGGGLVQAGGSLRLSCAASGSTFAKYAMGWYRQAPGKERELVAAISLSGGSTYYADSVKGRFTISRDNAKNTVYLQMNSLKPEDTAVYYCNTPPSRYVRYGIYRYDYWGQGTQVTVSS	high polyreactivity
QVQLVESGGGLVQAGGSLRLSCAASGLTFGGNAMGWYRQAPGKERELVAAISWSDDTTDYADSVKGRLTISRDNAKNTVYLQMNSLKPEDTAVYYCAARLPFEHVDYWGQGTQVTVSS	low polyreactivity
QVQLVESGGGLVQAGGSLRLSCAASGFIFQRYAMGWYRQAPGKERELVAAISSSGGRTSYADSVKGRFTISRDNAKNTVYLQMNSLKPEDTAVYYCAAYPQGRWYVVWSGDYWGQGTQVTVSS	high polyreactivity
QVQLVESGGGLVQAGGSLRLSCAASGSTFDPNAKGWYRQEPGKERELVAAISKSGGRTYYADSVKGRFTISRDNAKNTVYLQMNSLKPEDTAVYYCNARFGSRYNFFGLRYNYWGLGTQVTVSS	high polyreactivity
LVQHQESGGGLVQAGGSLRLSCAASGTIFLRYYMGWYRQAPGKQREFVAAINIGATANYADSLKGRFTISRDNAKNTVYLQMKSLYPQDTAVYYCAVYYPIYRQHDYWGQGSQVTVSS	low polyreactivity
QVQLVESGGGLVQAGGSLRLSCAASGSTFGVSAMGWSRQAPGKERELVAAISGRGGRTYYADSVKGRFTISRDNAKNTVYLLMNSLKPEDTAVYYFAVVGSAYQSRYDYWGQGTQVTVSS	high polyreactivity
QVQLVESGGGLVQAGGSLRLSCDASGIIFAWYAMGWSRQAPGKERELVAAISSDGITKDADSVKGRFTISRDNAKNTVYLQMNSLKPEDTAVYYCAAGLGWGLYWIDSYEYWGQGTQVTVSS	low polyreactivity
QDQLVESGGGFVQAGGSLRLSCAASGFTFGSNTMGWSRQAPGKERELVAAITTSGDSTYYADSVKGRFTLSRDNAKNTVYLQMNSLKPEDTAVYDCAARRGYPRFEYWGQGTQVTVSS	high polyreactivity
QVQHVESGGGLVQAGGSLRLSCAASASTFAWYPMGWYRQAPGKERELVAAITRDGSTYYADSVKGRFTISRDNAKNTVYLQMNSLKPEDTAVYYCAADLSYWRGGHSRNYWGQGTQVTVSS	low polyreactivity
QVQLVESGGGLVQAGGSLRLSCAASGRTFWYYAMGWYRQAPGKEREFVAAISWSGGSTYYADSVKGRFTISRDNAKNTVYLQMNSLKPEDTAVYYCAADGYDSSQFYYWGQGTQVTVSS	low polyreactivity

Sequence	polyreactivity (PSR sort gate)
QVQLVESGGGLVQAGGSLRLSCAASGSIIARYAMGSYRQAPGKERELVATITRGGSTNYADSVKGRFTISRDNAKNTVYLQMNSLKPEDTAVYYCARTSYGRLDYWGQGTQVTVSS	low polyreactivity
QVQLVESGGGLVQAGGSILLSCAASGFIFLYYAMGWYRQAPGKERELVADISRGADTKYADTVKGRFTISRDNAKNTVYLQMNSLKPEDTAVYYCATVITTFWFPYPGVELGYWGQGTQVNVSS	low polyreactivity
QVHLVESGGGLVQAGGSLRLCCAASGRIFDHNTKGWYRQAPGKEMEFVAAITVSAGTTYYADSVKGRFTISSDNAKNTVYLQMNSLKPEDTAVYYCAAYYVYSYWDWGDYWGQGTQVTVSS	low polyreactivity
QVQLQESGGGLVQAGGSLRLSCAASGTISDSGLMGWYRQAPGKERELVAGISSGGITNYADSVKGRFTISRDNAKNTVYLQMNSLKPDDTAVYWGQGTQVTVSS	low polyreactivity
QDQLVESGGGLVQAGGSLRLSCAASGSTLRGYAMGWYRQAPGKEREFVASITSSGSRTYADSVKGRFTISRDNAKNTVYLQMNSLKPEDTAVYYCAANRWPLKGYTSRYWGYWYNYWGQGTQVTVSS	high polyreactivity
QVQLVESGGGLVQAGGSLRLSCAASGITFLDYAMGWYRQAPGKERELVADISTSGGSTYYADSVKGRFTISRDNAKNTVYLQMNSLKPEDTAVYYCAADTFDFWWSLGSMDYWGQGTQVTVSS	high polyreactivity
QVQLVESGGGLVQAGGSLRLSCAASGRTFIHYAMGWSRQAPGKERELVAAISRRGGSTYYADSVKGRFTISRDNAKNTVYLQMNSLKPEDTAVYYCAARLLGITGRTDSGAEGDYWGQGTQVTVSS	high polyreactivity
QVQLVESGGGLVQAGGSLRLSCAASGSIFGGNAMGWYRQAPGKERELVAVISWSGGSTYYADSVKGRFTISRDNAKNTVYVQMNSLKPEDTAVYYCATSSVAEAKYVTEGTFDYWGQGTQVTVSS	low polyreactivity
QVQLVESGGGLVHAGGSLRLSCAASGRIFKSYAMGWYRQAPGKEREFVAAISTRSSSTYYADSVKGRFTISRDNAKNTVYLQMNSLKPEDTAVYYCAKVYQTLPYYYPGDYWGQGTQVNVSS	low polyreactivity
QVQLVESGGGLVQAGGSLRLSCAASGSSFTGNAMGWYRQAPGKERELVASINGSSGSTYYADSVKGRFTISRDNAKNTVYLEMNSLKPEDTAVYYCNADTYYVEYTAFDYWGQGTQVTVSS	low polyreactivity
QVQLVESGGGLVQAGGSLRLSCAASGSIFSSYTMGWYRQAPGKERELVAAISSTGSTYYADSVKGRFTISRDNAKNTVYLQMNSLKPEDTAVYYCAARGWYWQQYKGHTRYDYWGQGTQVTVSS	high polyreactivity
QVQLVESGGGLVQAGGSLGLSCAASGSIFGYYALGWYRPAPGKERELVAAISWSDGSTYYADSVKGRFTISRDNAKNTVYLQMNSLKPEDTAVYDCAARFTPYITSADGHYDYWGQGTQVTVSS	low polyreactivity
QVQLVESGGGLVQAGGSLRLSCAASGSTFVNYVMGWYRQAPGKERELVAAISRRGTSTRYADSVKGRFTISRDNAKNTVYLQMNSLKPEDTAVYYCAATRYVGVTGYGYWGQGTQVTVSS	high polyreactivity
QVQLVESGGGIVQAGGSLRLSCAASGYIFKRYAMGWYRQAPWKERELVAAITGRGGSTYFADSVKGRFKISRDNAKNTVYLQMNSLKPEDTAVYYCAADGYVKGDYWGQGTQVTVSS	high polyreactivity
QVQLVESGGGLVQSGGSLRLSCAASGRTFKYNAMGWYRQAPGKERELVAVIRYSGGTTYYADSVKGRFTISRDNAKNTVYLQMNSLKPEDTAVYYCAADSWSRSVNYYYWGQGTQVTVSS	low polyreactivity
QVQLVDSVGGLVQAGGSLRLSCAASGSIFGVYAKGWYRQAPGKERELVAAIDESGGSTFYADSVKGRFTISRDNAKNTVYLQMNSLKPEDTAVYYCLVFREDSGPGDYYYWGQGTQVTVSS	low polyreactivity
QVQLVESGGGLVQAGGSLRLSCAASGFTFPDYAMGWYRQAPGKERELVAGISSTGDSTYYADSGKGRYTISRDNAKNTGYLQRNSLKPEETAVYYCNAAQERPSIILFSKYDYWGQGTQETVSS	low polyreactivity
QVQLVESGGGLVQAGGSLRLSCAASGITFSYYAMGWYRPAPGKERELVAAISRTGTSTYYADSVKGRFTISRDNAKNTVYFQMNSLKPEDTAVYYCAAVPRHPYHDKYDYWGQGTQVTVSS	high polyreactivity
QVQLVESGGGLVQAGGSLRLSCAASGRTFFGYAMGWYRQAPGKERELVAAISSGGSTYYADSVKGRFTISRDNAKNTVYLQMNSLKPEDTAVYYCAARSFTTRRSVIRNYWGQGTQVTVSS	high polyreactivity
QVQLVESGGGLVQAGGSLRLSCAASGRIFDDNTMGWYRQAPGKERELVAVITSGGSTNYADSVKGRFTISRDNAKNTVYLQMNSLKPVDTAVYYCATEPGGYRFDDRAFQYGYWGQGTQVTVSS	low polyreactivity
QVQLVESGGGLVQAGGSLRLSCAASGFTFLINAMGWYRQAPGKERELVAAIRSGGSTNYADSVKGRFTISRDNAKNSVYLQMNSLKPEDTAVYYCAARRYYPYKYRYGYWGQGTQVTVSS	high polyreactivity
